Reference: the supplement of paper PMC11908140

B1: library; numbered along this chain (parent)
chain: MRKPRAAVGSGHRKQAASQEGRQKHAKNNSQAKPSACDGLARQPEEVVLQASVSSYHLFRDVAEVTAFRGSLLSWYDQEKRDLPWRRRAEDEMDLDRRAYAVWVSEVMLQQTQVATVINYYTGWMQKWPTLQDLASASLEEVNQLWAGLGYYSRGRRLQEGARKVVEELGGHMPRTAETLQQLLPGVGRYTAGAIASIAFGQATGVVDGNVARVLCRVRAIGADPSSTLVSQQLWGLAQQLVDPARPGDFNQAAMELGATVCTPQRPLCSQCPVESLCRARQRVEQEQLLASGSLSGSPDVEECAPNTGQCHLCLPPSEPWDQTLGVVNFPRKASRKPPREESSATCVLEQPGALGAQILLVQRPNSGLLAGLWEFPSVTWEPSEQLQRKALLQELQRWAGPLPATHLRHLGEVVHTFSHIKLTYQVYGLALEGQTPVTTVPPGARWLTQEEFHTAAVSTAMKKVFRVYQGQQPGTCMGSKRSQVSSPCSRKKPRMGQQVLDNFFRSHISTDAHSLNSAAQ

Variants of: B1
Test: 8OG:A repair function score (normalized; synonymous = 0, nonsense = -1) (normalized log-likelihood score); higher = more repair activity (WT-like)
Details: with 8OG:A DNA repair reporter (GFP) in HEK-293 MUTYH KO cells
In short: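 With 10 pg/ml doxycycline, MUTYH knockout HEK-293 cells carrying lentiviral MUTYH cDNA NNN codon-scan libraries were co-transfected with mCherry and an 8OG:A GFP repair reporter. Viable mCherry+ cells were sorted into GFP+ (repair) and GFP− bins at 72 h, three replicates per tile, and tile amplicons were sequenced. Per-tile Rosace fitness scores were then normalized into a repair function score anchored on synonymous and nonsense distributions. Medians were fixed at 0 for synonymous and -1 for nonsense, excluding variants under 300 counts per million at the start.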

8OG:A repair function score of substitutions, site by site:
L290: P -0.0572 | W -0.0672 | V -0.0591 | Y -0.0918 | S -0.022 | R 0.0252 | Q -0.0401 | T 0.0127
G293: P -0.0254 | F -0.0692 | K -0.0447 | N -0.03 | L -0.0631 | H -0.05 | Y -0.0734 | Q -0.00725 | M -0.0432 | T -0.0505 | A -0.0268 | D -0.124 | C -0.0307 | R -0.00692 | S -0.0376 | E -0.0308 | W 0.000227 | I -0.0531 | V -0.0545
A305: P -0.125 | C -0.0298 | S -0.019 | I 0.00729 | W -0.0242 | V -0.0191 | E -0.0473 | D -0.0865 | M -0.0121 | H -0.0126 | N 0.00434 | Q -0.0168 | Y 0.000265 | G -0.0138 | T -0.034 | K -0.0297 | L -0.00389 | R -0.0332 | F -0.0551
S294: R -0.00624 | M -0.0115 | F -0.0489 | A -0.012 | I 0.00404 | V -0.0111 | G -0.00188 | N 0.0126 | C -0.00327 | T 0.00194 | K -0.0502 | Y -0.0109 | P -0.0152 | D -0.0514 | W -0.0117 | L -0.0244 | Q -0.0283 | E 0.00208 | H -0.0171
P306: F -0.0382 | T -0.00972 | N -0.00787 | C -0.044 | H -0.0537 | K -0.0963 | Y -0.0217 | G -0.0173 | M -0.0214 | V -0.015 | S -0.0289 | I -0.0314 | Q 0.0003 | D -0.0656 | W -0.009 | E -0.0828 | A -0.0211 | L -0.00346 | R -0.0125
S292: T -0.0314 | P -0.0306 | L -0.0154 | D -0.0297 | Y 0.00788 | F -0.0271 | I 0.000296 | C -0.0199 | V -0.0158 | M -0.0481 | A -0.0285 | H -0.00367 | Q -0.0703 | K -0.0316 | R -0.0254 | G -0.00959 | E -0.0389 | N -0.0335 | W -0.0286
D300: W -0.16 | A -0.149 | E -0.0547 | T -0.109 | I -0.191 | S -0.139 | H -0.0192 | L -0.189 | K -0.325 | G -0.148 | Y -0.121 | C -0.0631 | R -0.291 | M -0.0873 | N -0.0764 | P -0.0407 | F -0.255 | V -0.0916 | Q -0.112
A291: E -0.125 | R -0.0282 | H -0.0755 | M -0.0586 | G -0.0909 | D -0.119 | P -0.0656 | C -0.0481 | T -0.0451 | Q 0.00288 | V -0.0187 | K 0.00353 | N 0.0139 | I -0.0181 | S -0.000102 | W -0.0221 | Y 0.0195 | F -0.0509 | L -0.0339
L295: A -0.00496 | I 0.00398 | K -0.0388 | R -0.0249 | W -0.0272 | Q -0.0618 | M -0.0314 | Y -0.0185 | T -0.00105 | D -0.0433 | S -0.0013 | V 0.0106 | H -0.0248 | P 0.0289 | E -0.0096 | N -0.00265 | C -0.0222 | F -0.0139
V301: E -0.439 | F -0.175 | S -0.344 | A -0.249 | K -0.283 | R -0.275 | P -0.31 | H -0.166 | G -0.279 | C -0.217 | L -0.0363 | I -0.0154 | D -0.39 | W -0.211 | Q -0.242 | M -0.126 | N -0.386 | Y -0.219 | T -0.284
P299: V -0.0192 | M -0.0166 | Y -0.00692 | C -0.0402 | L -0.0164 | F 0.00405 | D 0.0184 | R -0.000753 | K -0.0515 | E -0.036 | Q -0.00604 | W -0.0506 | H 0.0118 | T -0.0424 | S -0.0568 | N -0.099 | I -0.00528 | G -0.0369 | A -0.0132
G297: I -0.0605 | D -0.0132 | Q -0.0223 | C 0.00942 | W -0.206 | P -0.0639 | T 0.0201 | H 0.00021 | L -0.000773 | V 0.0126 | K 0.0192 | F 0.016 | E -0.0194 | N -0.00835 | S -0.00596 | R -0.0667 | Y -0.0582 | A -0.00898 | M -0.00568
E303: F -0.112 | I -0.101 | T -0.0474 | L -0.0849 | P -0.218 | R -0.0675 | N -0.0416 | Y -0.231 | V -0.0344 | M 0.000479 | S -0.0938 | Q 0.0405 | K -0.0605 | G -0.0952 | C -0.0302 | H -0.102 | W -0.175 | D -0.0577 | A -0.0517
C304: W -0.296 | P -0.398 | Q -0.421 | G -0.343 | H -0.403 | F -0.29 | A -0.225 | N -0.439 | E -0.556 | R -0.464 | D -0.518 | L -0.16 | I -0.257 | Y -0.341 | T -0.454 | S -0.289 | M -0.303 | K -0.535 | V -0.331
S296: N -0.0281 | R 0.0309 | Y 0.0195 | Q -0.00136 | L -0.0062 | D 0.0216 | I -0.0485 | A -0.0202 | T -0.0451 | G -0.0331 | W 0.0254 | C -0.0117 | K -0.0357 | V 0.0116 | M -0.0125 | E -0.0247 | H -0.0357 | P -0.00535 | F -0.00655
T308: A 0.0246 | D -0.0467 | C -0.00889 | E -0.0446
E302: P -0.223 | V -0.232 | T -0.238 | W -0.215 | I -0.284 | S -0.307 | H -0.259 | Y -0.246 | R -0.254 | A -0.273 | K -0.367 | F -0.253 | Q -0.207 | D -0.367 | C -0.32 | L -0.236 | G -0.316 | N -0.316 | M -0.216
N307: G -0.0226 | K -0.0345 | L -0.079 | H -0.0535 | V 0.0207 | P -0.0382 | Y -0.0923 | T -0.07 | F -0.00176 | C -0.119 | Q -0.00475 | R -0.00117 | A -0.0752 | M -0.145 | I -0.0284 | W -0.0672 | D 0.0758 | S -0.00118 | E -0.0119
S298: P 0.0228 | D -0.0341 | W -0.00249 | N -0.0213 | A -0.000852 | C -0.0366 | H 0.0283 | Y -0.0154 | V 0.00493 | R -0.0386 | K -0.0342 | L 0.0173 | I 0.0307 | Q -0.0174 | M -0.0331 | F -0.0178 | T 0.00821 | E -0.0588 | G 0.0202
